Measured values as given in patent publication US20110059095A1.
Numbering of substitutions follows the chain as printed. Values belong to the binder of their own block, whether it stands above or below them.

How the values were obtained:
monkey PAR-2 (monkey) = test: cell-based or functional assay
[1] = molecular target: full length mouse PAR-2 (mouse) (UniProt P55086); test: cell-based or functional assay
[2] = molecular target: full length human PAR-2 (human) (UniProt P55085); test: cell-based or functional assay
[3] = molecular target: full length human PAR-2 (human) (UniProt P55085); test: cell ELISA, 10 ug/ml antibody

Chain of full length mouse PAR-2 (mouse) (P55086 other isoform, or with tags, fused parts or gaps limits assumed): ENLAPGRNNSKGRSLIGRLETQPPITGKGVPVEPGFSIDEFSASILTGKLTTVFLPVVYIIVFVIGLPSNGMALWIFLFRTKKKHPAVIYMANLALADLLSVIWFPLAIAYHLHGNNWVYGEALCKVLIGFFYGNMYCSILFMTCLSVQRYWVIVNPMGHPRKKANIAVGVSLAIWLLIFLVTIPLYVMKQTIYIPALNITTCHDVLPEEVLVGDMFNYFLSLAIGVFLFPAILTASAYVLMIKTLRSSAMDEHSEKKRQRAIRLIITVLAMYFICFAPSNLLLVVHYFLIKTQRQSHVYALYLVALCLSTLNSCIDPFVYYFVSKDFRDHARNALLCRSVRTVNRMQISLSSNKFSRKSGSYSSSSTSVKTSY
Chain of full length human PAR-2 (human) (P55085 26-397 G138A limits assumed): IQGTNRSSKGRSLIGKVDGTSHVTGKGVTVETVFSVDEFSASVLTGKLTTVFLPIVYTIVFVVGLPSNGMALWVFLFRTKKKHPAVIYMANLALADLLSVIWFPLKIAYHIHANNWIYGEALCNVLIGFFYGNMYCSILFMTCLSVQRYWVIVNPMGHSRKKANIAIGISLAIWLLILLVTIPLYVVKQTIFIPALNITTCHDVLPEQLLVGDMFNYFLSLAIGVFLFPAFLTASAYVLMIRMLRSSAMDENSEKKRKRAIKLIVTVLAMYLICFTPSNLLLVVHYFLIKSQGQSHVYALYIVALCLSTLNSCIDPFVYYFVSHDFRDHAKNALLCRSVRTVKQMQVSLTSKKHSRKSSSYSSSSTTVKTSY

B2: H3M620N (antibody, V domains shown)
VH: EVQLVESGGNVVRPGGSLRLSCAASGFTFDDYGMTWVRQVPGKGLEWVSGINWNGGSTDYADSVKGRFTISRDNAKNSLYLQMNSLRAEDTALYYCARDKGFYGMDVWGQGTTVTVSS
VL: DIVMTQSPDSLAVSLGERATINCKSSQNPLYNSNKKKYLAWYQQKPGQPPKLVIYWASTRESGVPDRFSGSGSGTDFTLTITSLQAEDVAVYYCQQYYSTPYTFGQGTKLEIK
A450 ratio (293/D9/hPAR-2rec to 293/D9 cells) [3]: 1.24

B3: H2M611N (antibody, V domains shown)
VH: EVQLLESGGGLVQPGGSLRLSCAASGFTFSSYAMTWVRQAPGKGLYWVSAISGSGGSAYYADSVKGRFTISRDNSKNTLYLQMNSLRAEDTAVYYCAKEGDSGYDLDYWGRGTLVTVSS
VL: DIQMTQSPSSLSASVGDRVTITCRARQGISNYLAWLQQKPGKAPKSLIYAASSLQSGVPSKFSGSGSGTDFTLTISSLQPEDFATYYCQQYKSSPLTFGGGTKVEIK
A450 ratio (293/D9/hPAR-2rec to 293/D9 cells) [3]: 1.76

B4: H2M609N (antibody, V domains shown)
VH: EVQLVESGGGLVQPGRSLRLSCAASGFTFDDYAMHWVRQAPGKGLEWVSGISWNSGSKGFADSVKGRFTISRDNAKNSLYLQMNSLRVEDTALYYCAKENWSFDYWGQGTLVTVSS
VL: DIVMTQTPLSSPVTLGQPASISCRSSQSLVHSDGNIYLSWLQQRPGQPPRLLIYKISNRFSGVPDRFSGSGAGTDFTLKISRVEAEDVGIYYCMQASHFPYTFGQGTKLEIK
A450 ratio (293/D9/hPAR-2rec to 293/D9 cells) [3]: 1.54

B5: H1M619N (antibody, V domains shown)
VH: B4 VH with P14A, K58R, F60Y, Y80H, N84Y, V88A
VL: B4 VL with I36T, N58Y, E84A, A85T, I90V, S97T, H98Q, F99L
A450 ratio (293/D9/hPAR-2rec to 293/D9 cells) [3]: 1.51

More lines, now with the values ahead:

EC50 of activator, NF-kB-luciferase (monkey PAR-2 (monkey)): 0.0063 µM
EC50 of activator, NF-kB-luciferase [1]: 0.008 µM
EC50 of activator, NF-kB-luciferase [2]: 0.005 µM
B1: Human Kallikrein 14 (enzyme, UniProt Q9P0G3 25-251, looked up)
chain: IIGGHTCTRSSQPWQAALLAGPRRRFLCGGALLSGQWVITAAHCGRPILQVALGKHNLRRWEATQQVLRVVRQVTHPNYNSRTHDNDLMLLQLQQPARIGRAVRPIEVTQACASPGTSCRVSGWGTISSPIARYPASLQCVNINISPDEVCQKAYPRTITPGMVCAGVPQGGKDSCQGDSGGPLVCRGQLQGLVSWGMERCALPGYPGVYTNLCKYRSWIEETMRDK

H4H581P IC50, NF-kB-luciferase, Bovine Factor Xa [1]: 0.34 µM
H4H581P IC50, NF-kB-luciferase, Human Factor Xa [1]: 0.109 µM
H4H581P IC50, NF-kB-luciferase, Human Kallikrein 14 [1]: 0.256 µM
H4H581P IC50, NF-kB-luciferase, Human Pancreatic Trypsin [1]: 0.491 µM
B6: H4H581P (antibody, human IgG4, V domains shown)
VH: QVQLVESGGGVVQPGRSLRLSCVASGFTFSRYGIHWVRQAPGKGLEWVIVISYDGINKYYADSVKGRFTISRDNSKNTVYLQMNSLRAEDTAVYYCAKGDFWSGYFDYWGQGTLVTVSS
VL: DIVMTQTPLSSPVTLGQPASISCRSSQSLVHSDGNTYLSWLHQRPGQPPRLLIYKISNRFSGVPDRFSGSGAGTDFTLQISRVEAEDVGIYYCMQATQFPTFGGGTKVEIK
